The values below come from PMC6205948, “Phage-Borne Depolymerases Decrease Klebsiella pneumoniae Resistance to Innate Defense Mechanisms” (Frontiers in Microbiology, 2018).

Data set [1] deals with KP32gp37 (Klebsiella phage KP32) (UniProt D1L2X0). The data set is described as follows: SEC-MALS; purified protein in solution, native conditions; SEC coupled to a miniDAWN TREOS MALS detector and Optilab rEX; proteins dialyzed against PBS pH 7.4.
Data set [2] deals with the molecule itself. The description is as above.

Take “KP32gp37 (from UniProt D1L2X0 1-869) (enzyme)”: in data set [1], the stoichiometry N is 3.

B1: KP32gp38 (enzyme, Klebsiella phage KP32, UniProt D1L2X1 1-576, looked up)
chain: MLDNFNQPKGSTIGVLKDGRTIQEAFDSLPRLESFSGSTATDKLRAAITLGVSEVAIGPVEGNGGRPYEFGDVVIPYPLRIVGCGSQGINVTKGTVLKRSAGASFMFHFTGEGQAQRPMGGGLFNINLNGDTATALGDIIKVTQWSYFKANNCAFQNMAGWGIRLKDVMESNISGNLFRRLGGPSGGGILFDDVRSAVTDNVNNLHIEDNTFALMSGPWIGSTANSNPDLIWIVRNKFEFDGTPAAPNTVDSYVLDFQQLSRAFIQDNGFTHFTTERNRYVGVLRVGATAVGTIKFEDNLLFACESAGLIAGGIVVSRGNVNNQGSATTAIKQFTNTSSKLCKLERVINVQSNGNVSVGQQILPDGYINMAELPGNTRLPSEYDADGETTSVLRVPANTQVRQWSVPKMYKDGLTVTKVTVRAKGAAAGAILSLQSGSTVLSTKSIDAGVWKNYVFYVKANQLQETLQLRNTGTADVLADGMVFGKVDYIDWDFAIAPGTLAAGAKYTTPNQSYLDVAGMRVQAVSIPMFDGPTTGLQVWVEATSANGSFVVVMKNDTGSELVTTVTRCRVRAFVS
notes: open reading frame cloned into pEXP5-CT/TOPO; runs at about 62 kDa on SDS-PAGE; The vector pEXP5-CT/TOPO adds a C-terminal His6 tag (surmised from the vector's name); also called hypothetical protein; K21 depolymerase
For the molecule B1, in data set [2], the “stoichiometry N” value was determined as 3.
